From patent US20240376218A1 (published 2024)

Experiments:
Assay in all cases: cell-based or functional assay
human CCR8 [1] = target: human CCR8 (human, UniProt P51685 1-355)
[2] = target: human CCR8 (P51685_CCR8_HUMAN) (human, UniProt P51685 1-355)
human CCR8 [3] = target: T1, human CCR8 (human, UniProt P51685 1-355); remark: listed apart in the source
human CCR8 [4] = target: T1, human CCR8; remark: listed apart in the source
human CCR8 [5] = target: T1, human CCR8; remark: listed apart in the source
human CCR8 [6] = target: human CCR8 (human, UniProt P51685 1-355); remark: listed apart in the source

ADCC EC50, activated Tregs + NK92v, Donor 1213 [2] [nM]	ADCC EC50, activated Tregs + NK92v, Donor 1730 [2] [nM]	ADCC Max Response, activated Tregs + NK92v, Donor 1213 [2] [%]	ADCC Max Response, activated Tregs + NK92v, Donor 1730 [2] [%]	Binder	further results
				TPP-18205 (antibody, human IgG1, lambda, V domains shown) VH: EVQLLESGGGLVQPGGSLRLSCAASGFTFSSYAMSWVRQAPGKGLEWVSGIRWNSGSKGYAGSVKGRFTISRDNSKNTLYLQMNSLRAEDTAVYYCVRSGNYYVGYHGMDVWGQGTLVTVSS VL: QSVLTQPPSASGTPGQRVTISCSGGNSNIGTYFVSWYQQLPGTAPKLLIYTNNQRPSGVPDRFSGSKSGTSASLAISGLRSEDEADYYCETWDSNTRVFGGGTKLTVLG	Ca flux assay IC50 (nM), block of signaling induced by CCL1 at 80 ng/ml; CHO cells expressing human CCR8 (human CCR8 [1]): 1.6 nM
0.23	1.05	52	58	TPP-18205 (004-F10_497A-M296-L12+497A-M326-O09-hIgG1Lambda), afucosylated (antibody, V domains shown, afucosylated N-glycan at N297) VH: EVQLLESGGGLVQPGGSLRLSCAASGFTFSSYAMSWVRQAPGKGLEWVSGIRWNSGSKGYAGSVKGRFTISRDNSKNTLYLQMNSLRAEDTAVYYCVRSGNYYVGYHGMDVWGQGTLVTVSS VL: QSVLTQPPSASGTPGQRVTISCSGGNSNIGTYFVSWYQQLPGTAPKLLIYTNNQRPSGVPDRFSGSKSGTSASLAISGLRSEDEADYYCETWDSNTRVFGGGTKLTVLG	
~0.00558	~0.018	20	24	TPP-18205 (004-F10_497A-M296-L12+497A-M326-O09-hIgG1Lambda), WT (antibody, V domains shown) VH: EVQLLESGGGLVQPGGSLRLSCAASGFTFSSYAMSWVRQAPGKGLEWVSGIRWNSGSKGYAGSVKGRFTISRDNSKNTLYLQMNSLRAEDTAVYYCVRSGNYYVGYHGMDVWGQGTLVTVSS VL: QSVLTQPPSASGTPGQRVTISCSGGNSNIGTYFVSWYQQLPGTAPKLLIYTNNQRPSGVPDRFSGSKSGTSASLAISGLRSEDEADYYCETWDSNTRVFGGGTKLTVLG	
		10	13	TPP-17577 (497A-M178-K09-1-hIgG1Lambda), WT (antibody, V domains shown) VH: EVQLLESGGGLLQPGGSLRLSCAASGFTFSNAWMSWVRQAPGKGLEWVAVISYDGRNKYSADSVKGRFTISRDNSKNTLYLQMNSLRAEDTAVYYCARGLPYGYWGQGTLVTVSS VL: not shown	
1.85	4.57	41	40	TPP-17577 (497A-M178-K09-1-hIgG1Lambda), afucosylated (antibody, V domains shown, afucosylated N-glycan at N297) VH: EVQLLESGGGLLQPGGSLRLSCAASGFTFSNAWMSWVRQAPGKGLEWVAVISYDGRNKYSADSVKGRFTISRDNSKNTLYLQMNSLRAEDTAVYYCARGLPYGYWGQGTLVTVSS VL: not shown	
				TPP-20950 (18206-gl-42-hIgG1wt-Lambda), afucosylated (antibody, V domains shown, afucosylated (no fucose on the N-glycan at N297)) VH: EVQLLESGGGLVQPGGSLRLSCAASGFTFSSYGMHWVRQAPGKGLEWVSAIKWGGGSHGYADSVKGRFTISRDNSKNTLYLQMNSLRAEDTAVYYCARGHHSGKDGRFFDYWGQGTLVTVSS VL: QSVLTQPPSVSGAPGQRVTISCTGSSSNIGAGYNVHWYQQLPGTAPKLLIYTNNRRPSGVPDRFSGSKSGTSASLAISGLRSEDEADYYCAAWDASLSGWVFGGGTKLTVLG	ADCP EC50 (pM); activated human Tregs donor 1212 + M2c donor 3 (human CCR8 [3]): 23 pM; ADCP Max Response (%); activated human Tregs donor 1212 + M2c donor 3 (human CCR8 [3]): 14%; ADCP EC50 (pM); activated human Tregs donor 1212 + M2c donor 4 (human CCR8 [4]): 10.7 pM; ADCP Max Response (%); activated human Tregs donor 1212 + M2c donor 4 (human CCR8 [4]): 24%; ADCP EC50 (pM); activated human Tregs donor 1212 + M2c macrophages (human CCR8 [5]): 128 pM; ADCP Max Response (%); activated human Tregs donor 1212 + M2c macrophages (human CCR8 [5]): 32%
				TPP-20950, afucosylated (antibody, human IgG1, lambda, V domains shown, afucosylated (no fucose on the N-glycan at N297)) VH: EVQLLESGGGLVQPGGSLRLSCAASGFTFSSYGMHWVRQAPGKGLEWVSAIKWGGGSHGYADSVKGRFTISRDNSKNTLYLQMNSLRAEDTAVYYCARGHHSGKDGRFFDYWGQGTLVTVSS VL: QSVLTQPPSVSGAPGQRVTISCTGSSSNIGAGYNVHWYQQLPGTAPKLLIYTNNRRPSGVPDRFSGSKSGTSASLAISGLRSEDEADYYCAAWDASLSGWVFGGGTKLTVLG	ADCC Max Response (%); activated human Tregs (Donor 1100) as target cells, NK92v effector cells (human CCR8 [6]): 97%; ADCC hTreg EC50 (pM); activated human Tregs (Donor 1100) as target cells, NK92v effector cells (human CCR8 [6]): 9.51 pM
				TPP-20955, afucosylated (antibody, human IgG1, lambda, V domains shown, afucosylated (no fucose on the N-glycan at N297)) VH: EVQLLESGGGLVQPGGSLRLSCAASGFTFSSYGMHWVRQAPGKGLEWVSAIKWGGGSHGYADSVKGRFTISRDNSKNTLYLQMNSLRAEDTAVYYCARGHHKGYDGRFFDYWGQGTLVTVSS VL: QSVLTQPPSVSGAPGQRVTISCTGSSSNIGAGYNVHWYQQLPGTAPKLLIYTNNRRPSGVPDRFSGSKSGTSASLAISGLRSEDEADYYCAAWDASLSGWVFGGGTKLTVLG	ADCC Max Response (%); activated human Tregs (Donor 1100) as target cells, NK92v effector cells (human CCR8 [6]): 91%; ADCC hTreg EC50 (pM); activated human Tregs (Donor 1100) as target cells, NK92v effector cells (human CCR8 [6]): 5.82 pM
